Reference: patent publication US20080292760A1, “Semi-Solid Food Products and Methods For Their Production, Based on Inhibiting Amylase Starch Breakdown” (WAGENINGEN CENTRE FOR FOOD SCIENCES, priority 2004, published 2008)

Assay: amylase study: sensory rating of vanilla custard desserts with added amylase
Format: in vivo, human
Experimental: The role of salivary amylase in modifying texture sensations was evaluated in the following examples, in which the level of amylase activity was varied within subjects, rather than between subjects. Alpha-amylase was added in varying concentrations to starch and CMC (non-starch)-based vanilla custard desserts. Additionally, amylase activity was inhibited to various degrees by adding the pharmaceutical amylase inhibitor Acarbose (CAS nr. 56180-94-0) in various concentrations to the same test foods.
Eighteen subjects, 11 females and 7 males aged between 18 and 34 yrs, participated the ‘amylase study’ and 7 different subjects, all females aged between 39 and 56 yrs, participated in the ‘acarbose study’. The subjects participating in the latter study had been informed about acarbose and its possibly side effects if swallowed. To avoid these side effects, subjects expectorated rather than swallowed the acarbose samples. All subjects signed consent forms expressing their willingness to participate in the studies, and all had previously been screened for olfactory and taste disorders and had received extensive training in the description of sensory mouthfeel and afterfeel attributes for semi-solid foods. Testing took place at the sensory facilities of TNO-Nutrition and Food Research in Zeist, The Netherlands.
For the ‘amylase study’, two commercially available full-fat vanilla custard desserts (3 wt % fat AH vanille vla or “AH”, Albert Heijn Corp., Zaandam, The Netherlands; and 3 wt % fat Boerenland via or “BL”, Campina Corp., Woerden, The Netherlands) were used as the two starch-based vanilla custard desserts. For the ‘acarbose study’, Boerenland via was used again but the Albert Heijn via was replaced by a low-fat dairy custard (0.1 wt % fat Creamex, Creamex Corp., Rijkervoort, The Netherlands).
In both studies, the effect of amylase and acarbose on starch-based custards was compared with their effects on non-starch custards to verify amylase-starch interactions. A non-starch custard was produced using full-fat (3 wt %) commercially available milk (Campina Corp., Woerden, The Netherlands) and adding 0.85 wt % of sodium carboxy methylcellulose (or “CMC”) (Akuell AF 3295, Akzo Nobel Corp., Amersfoort, The Netherlands), 6.25 wt % of sugar and 0.33 wt % of vanilla powder. Yellow colorant (Egg yellow, Supercook, Leeds, United Kingdom) was added at 3.33 ml/l custard to match the color of the starch-based custards.
For the amylase study, a bacterial α-amylase (from Bacillus licheniformis, with 15 wt % NaCl and 25 wt % sucrose, Sigma Corp., Zwijndrecht, The Netherlands) was used to prepare amylase solutions at concentrations of 40, 160, and 640 units in 100 μl aliquots of water. This concentration range is similar to the range of individual amylase levels found across a group of young and healthy subjects (Engelen, unpublished results). The amylase concentrations, including a control of 0 units, were added to 5 ml samples of the starch-based custards. Only the highest concentration, 640 units, and the control were added to 5 ml samples of the CMC custard.
Panelists were seated in sensory booths with appropriate ventilation and lighting. Testing took place over either 3 (‘amylase study’) or 1.5 (‘acarbose study’) sessions of 2 hours. Within each session, subjects were presented with 20 trials during which they received in the amylase study each of the three custards once with the various amounts of amylase and with two different processing instructions. Over the 3 sessions, each custard was presented 3 times in each condition. In the ‘acarbose study’, each of the three custards with various amounts of acarbose were presented twice in the first session, and once in the second half session. The stimulus presentation order was randomized per subject and per session. The trials were presented at an average rate of one trial per 5 minutes. A break separated the first and the second half of each session. […]

[1] = R, AH custard, amylase 40 units
[2] = R, AH custard, amylase 160 units
[3] = R, AH custard, amylase 640 units
[4] = R, BL custard, amylase 40 units
[5] = R, BL custard, amylase 160 units
[6] = R, BL custard, amylase 640 units
[7] = R, CMC custard, amylase 640 units
[8] = U, AH custard, amylase 40 units
[9] = U, AH custard, amylase 160 units
[10] = U, AH custard, amylase 640 units
[11] = U, BL custard, amylase 40 units
[12] = U, BL custard, amylase 160 units
[13] = U, BL custard, amylase 640 units
[14] = U, CMC custard, amylase 640 units

decrease of creamy mouthfeel (AH custard, amylase added): up to 25%
airy-mo [1]: 25
bitter/chem-fl [1]: 30
creamy-af [1]: 38
creamy-mo [1]: 44
fatty-af [1]: 29
heterogeneous-mo [1]: 26
prickling-mo [1]: 19
rough-af [1]: 26
smooth-mo [1]: 65
sticky-af [1]: 28
temperature-mo [1]: 38
thick-mo [1]: 41
airy-mo [2]: 25
bitter/chem-fl [2]: 38
creamy-af [2]: 35
creamy-mo [2]: 37
fatty-af [2]: 31
heterogeneous-mo [2]: 29
prickling-mo [2]: 20
rough-af [2]: 25
smooth-mo [2]: 62
sticky-af [2]: 29
temperature-mo [2]: 35
thick-mo [2]: 38
airy-mo [3]: 25
bitter/chem-fl [3]: 44
creamy-af [3]: 34
creamy-mo [3]: 35
fatty-af [3]: 29
heterogeneous-mo [3]: 33
prickling-mo [3]: 25
rough-af [3]: 23
smooth-mo [3]: 61
sticky-af [3]: 29
temperature-mo [3]: 38
thick-mo [3]: 41
airy-mo [4]: 28
bitter/chem-fl [4]: 22
creamy-af [4]: 35
creamy-mo [4]: 43
fatty-af [4]: 28
heterogeneous-mo [4]: 24
prickling-mo [4]: 17
rough-af [4]: 28
smooth-mo [4]: 63
sticky-af [4]: 29
temperature-mo [4]: 37
thick-mo [4]: 41
airy-mo [5]: 29
bitter/chem-fl [5]: 32
creamy-af [5]: 35
creamy-mo [5]: 45
fatty-af [5]: 30
heterogeneous-mo [5]: 27
prickling-mo [5]: 19
rough-af [5]: 26
smooth-mo [5]: 63
sticky-af [5]: 29
temperature-mo [5]: 37
thick-mo [5]: 40
airy-mo [6]: 25
bitter/chem-fl [6]: 40
creamy-af [6]: 37
creamy-mo [6]: 37
fatty-af [6]: 30
heterogeneous-mo [6]: 32
prickling-mo [6]: 23
rough-af [6]: 26
smooth-mo [6]: 64
sticky-af [6]: 29
temperature-mo [6]: 37
thick-mo [6]: 38
airy-mo [7]: 36
bitter/chem-fl [7]: 45
creamy-af [7]: 39
creamy-mo [7]: 39
fatty-af [7]: 36
heterogeneous-mo [7]: 34
prickling-mo [7]: 25
rough-af [7]: 21
smooth-mo [7]: 47
sticky-af [7]: 37
temperature-mo [7]: 44
thick-mo [7]: 49
vanilla-fl [7]: 30
airy-mo [8]: 25
bitter/chem-fl [8]: 35
creamy-af [8]: 36
creamy-mo [8]: 44
fatty-af [8]: 29
heterogeneous-mo [8]: 28
prickling-mo [8]: 19
rough-af [8]: 30
smooth-mo [8]: 62
sticky-af [8]: 31
temperature-mo [8]: 41
thick-mo [8]: 39
airy-mo [9]: 27
bitter/chem-fl [9]: 37
creamy-af [9]: 37
creamy-mo [9]: 39
fatty-af [9]: 28
heterogeneous-mo [9]: 27
prickling-mo [9]: 19
rough-af [9]: 27
smooth-mo [9]: 65
sticky-af [9]: 28
temperature-mo [9]: 39
thick-mo [9]: 38
airy-mo [10]: 26
bitter/chem-fl [10]: 47
creamy-af [10]: 34
creamy-mo [10]: 36
fatty-af [10]: 28
heterogeneous-mo [10]: 28
prickling-mo [10]: 22
rough-af [10]: 27
smooth-mo [10]: 66
sticky-af [10]: 31
temperature-mo [10]: 40
thick-mo [10]: 32
airy-mo [11]: 27
bitter/chem-fl [11]: 27
creamy-af [11]: 37
creamy-mo [11]: 42
fatty-af [11]: 28
heterogeneous-mo [11]: 27
prickling-mo [11]: 17
rough-af [11]: 30
smooth-mo [11]: 65
sticky-af [11]: 31
temperature-mo [11]: 42
thick-mo [11]: 37
airy-mo [12]: 26
bitter/chem-fl [12]: 32
creamy-af [12]: 38
creamy-mo [12]: 43
fatty-af [12]: 29
heterogeneous-mo [12]: 27
prickling-mo [12]: 17
rough-af [12]: 31
smooth-mo [12]: 62
sticky-af [12]: 32
temperature-mo [12]: 42
thick-mo [12]: 41
airy-mo [13]: 27
bitter/chem-fl [13]: 38
creamy-af [13]: 35
creamy-mo [13]: 39
fatty-af [13]: 29
heterogeneous-mo [13]: 33
prickling-mo [13]: 20
rough-af [13]: 31
smooth-mo [13]: 66
sticky-af [13]: 34
temperature-mo [13]: 41
thick-mo [13]: 37
airy-mo [14]: 46
bitter/chem-fl [14]: 52
creamy-af [14]: 39
creamy-mo [14]: 40
fatty-af [14]: 41
heterogeneous-mo [14]: 38
prickling-mo [14]: 24
rough-af [14]: 21
smooth-mo [14]: 49
sticky-af [14]: 44
temperature-mo [14]: 48
thick-mo [14]: 53
vanilla-fl [14]: 29
intensity of bitter/chemical flavor, change when amylase added (non-starch CMC-based custard, p=0.01): increased
bitter/chemical flavor, change with increasing amylase concentration (starch-based custards): increased significantly
creamy mouthfeel, change with increasing amylase concentration (starch-based custards, p<0.0001): decreased
vanilla flavor, change with increasing amylase concentration (starch-based custards, p=0.001): decreased
thick mouthfeel, change with increasing amylase concentration (starch-based custards, p=0.004): decreased
heterogeneous mouthfeel, change with increasing amylase concentration (starch-based custards, p=0.006): increased significantly
fatty afterfeel, change with increasing amylase concentration (starch-based custards, p=0.05): decreased
B1: Amylase: bacterial α-amylase from Bacillus licheniformis, with 15 wt % NaCl and 25 wt % sucrose, Sigma Corp. (protein, UniProt P06278 30-512, looked up)
Alpha-amylase: ANLNGTLMQYFEWYMPNDGQHWKRLQNDSAYLAEHGITAVWIPPAYKGTSQADVGYGAYDLYDLGEFHQKGTVRTKYGTKGELQSAIKSLHSRDINVYGDVVINHKGGADATEDVTAVEVDPADRNRVISGEHRIKAWTHFHFPGRGSTYSDFKWHWYHFDGTDWDESRKLNRIYKFQGKAWDWEVSNENGNYDYLMYADIDYDHPDVAAEIKRWGTWYANELQLDGFRLDAVKHIKFSFLRDWVNHVREKTGKEMFTVAEYWQNDLGALENYLNKTNFNHSVFDVPLHYQFHAASTQGGGYDMRKLLNSTVVSKHPLKAVTFVDNHDTQPGQSLESTVQTWFKPLAYAFILTRESGYPQVFYGDMYGTKGDSQREIPALKHKIEPILKARKQYAYGAQHDYFDHHDIVGWTREGDSSVANSGLAALITDGPGGAKRMYVGRQNAGETWHDITGNRSEPVVINSEGWGEFHVNGGSVSIYVQR
modifications: formulated with NaCl and sucrose
melting-mo [7]: 35
melting-mo [14]: 32
effect on odor, mouthfeel or afterfeel attributes (non-starch CMC-based custard, added amylase): failed to affect any of the odor, mouthfeel or afterfeel attributes
melting mouthfeel, change with increasing amylase concentration (starch-based custards, p=0.001): increased significantly
